# PMC4339880, “Enzymatic properties and subtle differences in the substrate specificity of phylogenetically distinct invertebrate N-glycan processing hexosaminidases” (Glycobiology, 2014)
# T1: CeHEX-4 (Caenorhabditis HEX-4) (Caenorhabditis elegans, UniProt Q8WTK2)
# T1 sequence (Q8WTK2 25-491): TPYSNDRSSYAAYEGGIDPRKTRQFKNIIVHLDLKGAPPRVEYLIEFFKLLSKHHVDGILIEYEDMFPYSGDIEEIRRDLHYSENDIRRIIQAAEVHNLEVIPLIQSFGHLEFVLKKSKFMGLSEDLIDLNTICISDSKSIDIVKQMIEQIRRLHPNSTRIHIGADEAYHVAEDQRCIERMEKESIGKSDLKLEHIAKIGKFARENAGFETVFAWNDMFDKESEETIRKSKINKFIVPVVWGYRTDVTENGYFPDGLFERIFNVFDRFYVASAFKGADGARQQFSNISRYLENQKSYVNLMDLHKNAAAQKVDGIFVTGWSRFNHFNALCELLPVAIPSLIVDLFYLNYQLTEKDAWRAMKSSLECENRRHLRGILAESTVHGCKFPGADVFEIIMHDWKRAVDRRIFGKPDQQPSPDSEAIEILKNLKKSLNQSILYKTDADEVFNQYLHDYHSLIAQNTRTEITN
# T2: DmFDL (Drosophila melanogaster FDL) (Drosophila melanogaster, UniProt Q8WSF3, W506A)
# T2 construct: soluble form without transmembrane domain, alpha-factor secretion signal, N-terminal His-tag, P. pastoris X-33 (codon-optimized; also made in Hi5 insect cells), Ni-NTA purified
# T2 sequence (Q8WSF3 37-660 W506A limits assumed): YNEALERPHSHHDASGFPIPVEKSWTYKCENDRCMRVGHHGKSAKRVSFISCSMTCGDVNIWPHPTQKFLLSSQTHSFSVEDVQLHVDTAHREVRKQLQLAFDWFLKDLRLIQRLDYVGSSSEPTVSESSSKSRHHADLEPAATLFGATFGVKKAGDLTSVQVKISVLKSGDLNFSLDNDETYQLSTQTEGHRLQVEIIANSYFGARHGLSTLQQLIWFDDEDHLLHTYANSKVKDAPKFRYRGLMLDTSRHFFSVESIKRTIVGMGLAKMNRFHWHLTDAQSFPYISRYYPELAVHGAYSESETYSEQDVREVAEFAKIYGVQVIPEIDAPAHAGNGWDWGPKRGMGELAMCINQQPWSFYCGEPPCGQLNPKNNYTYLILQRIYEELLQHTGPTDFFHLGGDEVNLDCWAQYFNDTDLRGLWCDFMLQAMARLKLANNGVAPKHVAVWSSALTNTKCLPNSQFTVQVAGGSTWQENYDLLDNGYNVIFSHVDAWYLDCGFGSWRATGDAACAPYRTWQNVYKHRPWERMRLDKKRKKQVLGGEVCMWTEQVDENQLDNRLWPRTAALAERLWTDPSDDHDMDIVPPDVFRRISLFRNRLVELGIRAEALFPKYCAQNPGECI
# T3: DmFDL (Drosophila melanogaster FDL) (Drosophila melanogaster, UniProt Q8WSF3, G400V)
# T3 construct: soluble form without transmembrane domain, alpha-factor secretion signal, N-terminal His-tag, P. pastoris X-33 (codon-optimized; also made in Hi5 insect cells), Ni-NTA purified
# T3 sequence (Q8WSF3 37-660 G400V limits assumed): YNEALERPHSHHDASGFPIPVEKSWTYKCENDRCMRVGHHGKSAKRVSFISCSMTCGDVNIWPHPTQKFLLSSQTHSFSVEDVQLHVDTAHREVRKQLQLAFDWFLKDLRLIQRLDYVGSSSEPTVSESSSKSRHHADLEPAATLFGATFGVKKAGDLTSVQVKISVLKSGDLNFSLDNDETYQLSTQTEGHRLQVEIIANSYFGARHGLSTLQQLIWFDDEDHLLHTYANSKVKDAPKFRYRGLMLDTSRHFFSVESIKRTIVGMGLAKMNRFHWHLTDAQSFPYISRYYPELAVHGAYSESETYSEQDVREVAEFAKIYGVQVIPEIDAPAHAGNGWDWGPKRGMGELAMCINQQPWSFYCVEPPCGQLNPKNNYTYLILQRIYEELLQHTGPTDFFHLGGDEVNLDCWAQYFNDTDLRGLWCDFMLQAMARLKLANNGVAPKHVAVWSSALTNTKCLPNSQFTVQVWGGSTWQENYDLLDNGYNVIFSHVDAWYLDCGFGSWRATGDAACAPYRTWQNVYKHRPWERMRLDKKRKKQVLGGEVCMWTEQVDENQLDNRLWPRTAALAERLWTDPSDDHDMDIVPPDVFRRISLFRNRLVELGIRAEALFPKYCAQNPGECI
# Legend:
# [1] = target: T1, CeHEX-4 (Caenorhabditis HEX-4); test: inhibition of pNP-β-GalNAc hydrolysis (A405), Cheng-Prusoff from IC50; Dixon plot; assay type: biochemical; settings: substrate pNP-β-GalNAc, McIlvaine buffer, 37°C
# [2] = target: T2, DmFDL (Drosophila melanogaster FDL); test: p-nitrophenol release, A405; assay type: biochemical; settings: 5 mM substrate, McIlvaine buffer, 30°C
# [3] = target: T3, DmFDL (Drosophila melanogaster FDL); test: p-nitrophenol release, A405; assay type: biochemical; settings: 5 mM substrate, McIlvaine buffer, 30°C
# [4] = substrate: CC(=O)N[C@H]1[C@H](Oc2ccc([N+](=O)[O-])cc2)O[C@H](CO)[C@H](O)[C@@H]1O; test: p-nitrophenol release, A405, non-linear fit; assay type: biochemical, Caenorhabditis elegans; settings: McIlvaine buffer at optimal pH (5-6), 37°C
# [5] = substrate: CC(=O)N[C@H]1[C@H](Oc2ccc([N+](=O)[O-])cc2)O[C@H](CO)[C@@H](O)[C@@H]1O; test: p-nitrophenol release, A405, non-linear fit; assay type: biochemical, Caenorhabditis elegans; settings: McIlvaine buffer at optimal pH (5-6), 37°C
# [6] = substrate: CC(=O)N[C@H]1[C@H](Oc2ccc([N+](=O)[O-])cc2)O[C@H](CO)[C@H](O)[C@@H]1O; test: purified protein, by the assay type; design: p-nitrophenol release from pNP-glycoside substrate, A405, non-linear Michaelis-Menten fit
# Description: (§1) Determination of Km, specific activity, kcat and Ki Standard enzymatic activity assays were performed using pNP-β-GlcNAc (Sigma, USA) and pNP-β-GalNAc (Sigma, USA) as a substrate. The assays were performed at a substrate concentration of 5 mM in McIlvaine buffer, pH 4.0–6.0 at 30°C for Drosophila FDL and at 37°C for the other hexosaminidases. The total reaction volume was 40 µL and incubation time was 2 h. All purified enzymes were tested for additional activities using a range of p-nitrophenyl-sugars as substrates at a concentration of 5 mM for 4 h. After the addition of 200 µL of 0.4 M glycine/NaOH pH 10.4, A405nm was determined on a Tecan Infinite M200 microtiter plate reader (Tecan, Austria). All enzymes were appropriately diluted for measurements in order to measure reactions within the linear range of the assay. Enzyme units are given in µmol product (nitrophenol) per minute.
# [7] = substrate: CC(=O)N[C@H]1[C@H](Oc2ccc([N+](=O)[O-])cc2)O[C@H](CO)[C@@H](O)[C@@H]1O; test: purified protein, by the assay type; design: p-nitrophenol release from pNP-glycoside substrate, A405, non-linear Michaelis-Menten fit
# Description: as §1
molecule,measurement,setting,value
"CC(=O)N[C@H]1C(O)O[C@H](CO)[C@H](O)[C@@H]1O (stereo partly shown) [GalNAc, N-acetylgalactosamine]",Ki,[1],1000 µM
"CC(=O)N[C@H]1[C@H](Oc2ccc([N+](=O)[O-])cc2)O[C@H](CO)[C@H](O)[C@@H]1O [pNP-β-GalNAc, p-nitrophenyl-β-D-N-acetylgalactosaminide]","p-nitrophenol release, A405",[2],the W506A mutant showed decreased activity toward pNP-β-GalNAc
same,"p-nitrophenol release, A405",[3],the Drosophila G400V mutant showed increased
"CeHEX-2 (C. elegans HEX-2) (Caenorhabditis elegans) (protein, soluble form without transmembrane domain, alpha-factor secretion signal, C-terminal His-tag, P. pastoris X-33, Ni-NTA purified) SYPKGGISQRALDSMQKEPQTPVLVQKRENFEESIDVAVEQESKKENPFVNQQASTENAKPITQEVKIERPSRDNEFYKNVVIHFDLKGAPPKVDYFLDLLRLIAKGGATGILLEWEDMFPWTGKLEQFKNTDAYSESDVDMILSEATKLKLDVIPLVQTFGHLEWILKYEEMRKYRENDAYPQVLCLGNEEGVEFVREMIRQVAKKHAKYGIPFFHIGADEAFEFGVCQESLDWIKKNGKNGRKQLLALAHLKAIAEFAKQQTGDSTQILAWHDMLKDFDSRLIKNLELGQIIQPVVWDYSENIITLNDYIFSALAENFPTMWASSAYKGANYPSASTSEVRHYETNNRNWIRTKQNQERKFKNGFQGIIVTGWQRYDHLAGLCETLPIGTASMMLQMQIALNAPALDLEGTRQKAATLLECQGFNVDGVKVVSNQCKYRGFQTYLIYQSEVPNLFARIDSELSKNHHLMGWANRYNRKYNISQNWYHREMLPFVQQLVGQYDRVESDLRASMKDLYFENTIDEFIYENLGEMSEKLHGYLEEIQRLDKLRAWPKRHFPIKK",Km,[4],410 ± 80 µM
same,Km,[5],230 ± 150 µM
same,kcat,[5],8.6 ± 0.8 s⁻¹
same,kcat/Km,[5],22000 ± 3600 M⁻¹ s⁻¹
CeHEX-4 (Caenorhabditis HEX-4) (Caenorhabditis elegans) (protein) TPYSNDRSSYAAYEGGIDPRKTRQFKNIIVHLDLKGAPPRVEYLIEFFKLLSKHHVDGILIEYEDMFPYSGDIEEIRRDLHYSENDIRRIIQAAEVHNLEVIPLIQSFGHLEFVLKKSKFMGLSEDLIDLNTICISDSKSIDIVKQMIEQIRRLHPNSTRIHIGADEAYHVAEDQRCIERMEKESIGKSDLKLEHIAKIGKFARENAGFETVFAWNDMFDKESEETIRKSKINKFIVPVVWGYRTDVTENGYFPDGLFERIFNVFDRFYVASAFKGADGARQQFSNISRYLENQKSYVNLMDLHKNAAAQKVDGIFVTGWSRFNHFNALCELLPVAIPSLIVDLFYLNYQLTEKDAWRAMKSSLECENRRHLRGILAESTVHGCKFPGADVFEIIMHDWKRAVDRRIFGKPDQQPSPDSEAIEILKNLKKSLNQSILYKTDADEVFNQYLHDYHSLIAQNTRTEITN,Km,[4],590 ± 50 µM
same,kcat,[4],13.8 ± 1.4 s⁻¹
same,kcat/Km,[4],19500 ± 2300 M⁻¹ s⁻¹
same,Km,[5],3470 ± 350 µM
same,kcat,[5],12.6 ± 1.4 s⁻¹
same,kcat/Km,[5],2200 ± 100 M⁻¹ s⁻¹
"DmFDL (Drosophila melanogaster FDL) (Drosophila melanogaster) (protein, soluble form without transmembrane domain, alpha-factor secretion signal, N-terminal His-tag, P. pastoris X-33 (codon-optimized; also made in Hi5 insect cells), Ni-NTA purified) YNEALERPHSHHDASGFPIPVEKSWTYKCENDRCMRVGHHGKSAKRVSFISCSMTCGDVNIWPHPTQKFLLSSQTHSFSVEDVQLHVDTAHREVRKQLQLAFDWFLKDLRLIQRLDYVGSSSEPTVSESSSKSRHHADLEPAATLFGATFGVKKAGDLTSVQVKISVLKSGDLNFSLDNDETYQLSTQTEGHRLQVEIIANSYFGARHGLSTLQQLIWFDDEDHLLHTYANSKVKDAPKFRYRGLMLDTSRHFFSVESIKRTIVGMGLAKMNRFHWHLTDAQSFPYISRYYPELAVHGAYSESETYSEQDVREVAEFAKIYGVQVIPEIDAPAHAGNGWDWGPKRGMGELAMCINQQPWSFYCGEPPCGQLNPKNNYTYLILQRIYEELLQHTGPTDFFHLGGDEVNLDCWAQYFNDTDLRGLWCDFMLQAMARLKLANNGVAPKHVAVWSSALTNTKCLPNSQFTVQVWGGSTWQENYDLLDNGYNVIFSHVDAWYLDCGFGSWRATGDAACAPYRTWQNVYKHRPWERMRLDKKRKKQVLGGEVCMWTEQVDENQLDNRLWPRTAALAERLWTDPSDDHDMDIVPPDVFRRISLFRNRLVELGIRAEALFPKYCAQNPGECI",Km,[6],520 ± 30 µM
same,kcat,[6],5.6 ± 0.1 s⁻¹
same,kcat/Km,[6],11900 ± 800 M⁻¹ s⁻¹
same,Km,[7],1400 ± 80 µM
same,kcat,[7],48.2 ± 2.2 s⁻¹
same,kcat/Km,[7],42000 ± 1800 M⁻¹ s⁻¹
CeHEX-3 (C. elegans HEX-3) (Caenorhabditis elegans) (protein) TSQFKSTTTHARFVPEPSDPRLHPNSPLQAPKAQEPAAAETTKKPSRQPHHTTAKPRTENVEINGEKYPKLSPDGNLIPQRRIVHLDLKGAPYKPEFFTELFAFFNRIQATGILLEWEDMFPFKGRLRGAINKNAYSMETVEHILQEAQKHHLQIIPLVQTMGHLEWILKLEEFAHLREDTRFPQVICFSDENAWELIKEMIEEVANVHKKYGMSYFHIGADEAFQIGICNASITQIKKEFTRERLMLWHIARTARFVKEKYPETQVLAWHDMLASAMESDIEDYKLTELLQPVLWNYAEDLDIYLPRSTWMIVRNFRNVWGSSAWKGADGPARYSTNANHYLKNHESWIKQFTMVYKDFEVVEGLIMAGWSRYDHFAVLAETIPVALPTLAMSMETMIEGRPLAGNYPVTSELLQCTPPLDLGFTATGCKFPGNRIYELINEMYQKQMQLRTYRLDDYELNGWLSRVADDYSVSSHWYIDKIENMIEMHATPLEQLADDLRFEMERIFFKDTVDEFIFTYLGEDLEWFNRKRETIRKVSTSQTFPKRPFIESAKSEKTCT,Km,[4],590 ± 140 µM
same,kcat,[4],5.2 ± 1 s⁻¹
same,kcat/Km,[4],7800 ± 3000 M⁻¹ s⁻¹
same,Km,[5],970 ± 700 µM
same,kcat,[5],0.1 s⁻¹
same,kcat/Km,[5],200 ± 100 M⁻¹ s⁻¹
